Earlier results on 1 substance are cited in paper PMC3345106.

As a reminder, the pKa is the negative logarithm of the acid dissociation constant.

For this series, the target named is Cys34 (UniProt position 58, QYLQQCPFEDH). Conditions: HSA thiol in earlier reports, compared by the authors with their FA-free value.

For “Human serum albumin (HSA) (Homo sapiens)”, the pKa was approximately 8.
